Assay results: patent US20240277762A1 (published 2024)

Columns and labels:
[1] = molecular target: T1, PRAME peptide on HLA-A*02:01 (human); assay: killing
T1 peptide: SLLQHLIGL

[2] = molecular target: T2, PRAME peptide on HLA-A*02:02 (human); assay: cytokine release
T2 peptide: SLLQHLIGL

[3] = molecular target: T3, PRAME peptide on HLA-A*02:04 (human); assay: cytokine release
T3 peptide: SLLQHLIGL

[4] = molecular target: T4, PRAME peptide on HLA-A*02:09 (human); assay: cytokine release
T4 peptide: SLLQHLIGL

Measured: binding result

B1: T23.8-2.1-027-004 (TCR, V domains shown)
Valpha: GQQLNQSPQSMFIQEGEDVSMNCTSSSIFNTWLWYKQDPGEGPVLLIALYKAGELTSNGRLTAQFGITRKDSFLNISASIPSDVGIYFCAGLADYGGSQGNLIFGKGTKLSVKP
Vbeta: DSGVTQTPKHLITATGQRVTLRCSPRSGDLSVYWYQQSLDQGLQFLIQYYNGEERAKGNILERFSAQQFPDLHSELNLSSLELGDSALYFCASSVWASGGYEQYFGPGTRLTVT
recognises: all assays above
